Changes are numbered by the printed parent chain. Numbers in names are those of the source.

The labels stand for the following.
B1: OST577-IgG1 wild-type (antibody)
heavy: not shown
light: SYVLTQPPSVSVAPGQTARITCGGDNIGSKSVNWFQQKPGQAPVLVVYDDNERPSGISERFSGSNSGNTATLTISRVEAGDEADYYCQVWDSSSDHVVFGGGTKLTVLGQPKAAPSVTLFPPSSEELQANKATLVCLISDFYPGAVTVAWKADSSPVKAGVETTTPSKQSNNKYAASSYLSLTPEQWKSHRSYSCQVTHEGSTVEKTVAPTECS
notes: Human anti-HBV antibody, IgG1 heavy, lambda-2 light
B2: OST577-IgG1 M428L (antibody)
heavy: not shown
light: B1 light
B3: OST577-IgG1 T250Q (antibody)
heavy: not shown
light: B1 light
B4: OST577-IgG1 T250Q/M428L (antibody)
heavy: not shown
light: B1 light
B5: OST577-IgG2M3 M428L (antibody)
heavy: QVQLVESGGGVVQPGRSLRLSCAASGFTFSRYGMHWVRQAPGKGLEWVAVISYDGSNKWYADSVKGRFTISRDNSKNTLFLQMHSLRAADTGVYFCAKDQLYFGSQSPGHYWGQGTLVTVSSASTKGPSVFPLAPCSRSTSESTAALGCLVKDYFPEPVTVSWNSGALTSGVHTFPAVLQSSGLYSLSSVVTVPSSNFGTQTYTCNVDHKPSNTKVDKTVERKCCVECPPCPAPPAAAPSVFLFPPKPKDTLMISRTPEVTCVVVDVSHEDPEVQFNWYVDGVEVHNAKTKPREEQFNSTFRVVSVLTVVHQDWLNGKEYKCKVSNKGLPAPIEKTISKTKGQPREPQVYTLPPSREEMTKNQVSLTCLVKGFYPSDIAVEWESNGQPENNYKTTPPMLDSDGSFFLYSKLTVDKSRWQQGNVFSCSVLHEALHNHYTQKSLSLSPSK
light: B1 light
B6: OST577-IgG2M3 T250Q/M428L (antibody)
heavy: B5 heavy with T251Q
light: B1 light
B7: OST577-IgG2M3 T250Q/M428F (antibody)
heavy: B5 heavy with T251Q, L429F
light: B1 light
B8: OST577-IgG2M3 T250Q (antibody)
heavy: B5 heavy with T251Q, L429M
light: B1 light
B9: OST577-IgG2M3 L314A (antibody)
heavy: B5 heavy with L315A, L429M
light: B1 light
B10: OST577-IgG2M3 L314R (antibody)
heavy: B5 heavy with L315R, L429M
light: B1 light
B11: OST577-IgG2M3 T250V (antibody)
heavy: B5 heavy with T251V, L429M
light: B1 light
B12: OST577-IgG2M3 M428G (antibody)
heavy: B5 heavy with L429G
light: B1 light
B13: OST577-IgG2M3 T250A (antibody)
heavy: B5 heavy with T251A, L429M
light: B1 light
B14: OST577-IgG2M3 L314W (antibody)
heavy: B5 heavy with L315W, L429M
light: B1 light
B15: OST577-IgG2M3 T250S (antibody)
heavy: B5 heavy with T251S, L429M
light: B1 light
B16: OST577-IgG2M3 L314Q (antibody)
heavy: B5 heavy with L315Q, L429M
light: B1 light
B17: OST577-IgG2M3 T250D (antibody)
heavy: B5 heavy with T251D, L429M
light: B1 light
B18: OST577-IgG1 T250E (antibody)
heavy: not shown
light: B1 light
B19: OST577-IgG1 M428F (antibody)
heavy: not shown
light: B1 light
B20: OST577-IgG1 T250E/M428F (antibody)
heavy: not shown
light: B1 light

One assay concerns the target T1, recombinant, GPI-linked human FcRn on cell line NS0 HuFcRn (memb), clone 7-3 (human, UniProt P55899 24-297; P61769 21-119).
T1 construct: Expressed from pDL208 on the surface of NS0 cells; also called human neonatal Fc receptor; not shown: human c-myc decapeptide flanked by linker peptides, then GPI linkage signal of human decay accelerating factor (vector p)
As to the kind of experiment: competition FACS vs biotinylated OST577-IgG1 on NS0 cells expressing human FcRn, FBB pH 6.0.
In the case of B1, the half-inhibitory concentration (IC50) was 10.3 µg/mL.
Still for that read-out and setting: with B2 the figure was 0.896 µg/mL.
The same measure, in the same setting: with B3 the figure was 3.14 µg/mL; with B4, 0.351 µg/mL.

In the next assay the target is T1, recombinant, GPI-linked human FcRn on …. Description: competition FACS vs biotinylated OST577-IgG2M3 on NS0 cells expressing human FcRn, FBB pH 6.0.
Consider B5, for which the IC50 came to 1.79 µg/mL.
For the molecule B6, the 50% inhibitory concentration (IC50) stood at 0.43 µg/mL.
Still for that read-out and setting: under B7 stands 1.5 µg/mL; under B8, 4.2 µg/mL.

For a further assay the target is unchanged. Description: IC50 of wild-type / IC50 of this antibody, same assay.
With B1, the “Relative Binding” value amounted to 1 ratio.
On the same count and under the same terms, under B2 stands 11 ratio; under B3, 3.3 ratio.
On the same count and under the same terms, under B4 stands 29 ratio.

For the next assay the target is unchanged. The description is as above. This is another data set of the same source.
On to B5, for which the “Relative Binding” value came out at 6.7 ratio.
The same measure, in the same setting: under B6 stands 28 ratio; under B7, 8 ratio.
Same read-out and setting: under B8 stands 2.8 ratio.

For another assay the target is unchanged. The description is as above. This is another data set of the same source.
Regarding B9, the “Relative Binding” value amounted to 0.16 ratio.
Still for that read-out and setting: with B10 the figure was 0.11 ratio; with B11, 0.56 ratio; with B12, 0.072 ratio.
Consider B13, for which the “Relative Binding” value amounted to 0.8 ratio.
As for B14, the “Relative Binding” value was found to be 0.53 ratio.
Still for that read-out and setting: with B15 the figure was 0.89 ratio; with B16, 0.33 ratio; with B17, less than 0.05 ratio.

In the next assay the target is T2, recombinant, GPI-linked rhesus FcRn on cell line NS0 RhFcRn, clone R-3 (rhesus, UniProt H9Z6D2 24-297; Q6V7J5 21-119, GPI-linked).
T2 construct: Expressed from pDL410 on the surface of NS0 cells; not shown: human c-myc decapeptide flanked by linker peptides, then GPI linkage signal of human decay accelerating factor (vector p)
The assay is described as above.
Regarding B1, the “Relative Binding” value worked out at 1 ratio.
The same measure, in the same setting: with B2 the figure was 14 ratio.
Same read-out and setting: under B3 stands 3 ratio.
On the same count and under the same terms, under B4 stands 37 ratio.

A further assay concerns the target T2, recombinant, GPI-linked rhesus FcRn on …. As to the kind of experiment: competition FACS vs biotinylated OST577-IgG2M3 on NS0 cells expressing rhesus FcRn, FBB pH 6.0.
In the case of B5, the 50% inhibitory concentration (IC50) was found to be 1.92 µg/mL.
Turning to B6, the IC50 amounted to 0.554 µg/mL.
The same measure, in the same setting: with B7 the figure was 1.77 µg/mL.
The same measure, in the same setting: under B8 stands 4.05 µg/mL.

The next assay has as its target T1, recombinant, GPI-linked human FcRn on …. Description: IC50 of wild-type / IC50 of this antibody, same assay. The source holds these as a separate data set.
Take B1: the “Relative Binding” value came to 1 ratio.
Still for that read-out and setting: with B18 the figure was 2.6 ratio.
The same measure, in the same setting: with B19 the figure was 4 ratio.
The same measure, in the same setting: under B20 stands 14 ratio.

A further assay has the same target. As to the kind of experiment: competition FACS vs biotinylated OST577-IgG1 on NS0 cells expressing human FcRn, FBB pH 6.0. The source holds these as a separate data set.
As for B1, the IC50 worked out at 13.9 µg/mL.
As for B18, the IC50 is 5.26 µg/mL.
Same read-out and setting: under B19 stands 3.44 µg/mL; under B20, 0.99 µg/mL.

Another assay deals with T2, recombinant, GPI-linked rhesus FcRn on …. As to the kind of experiment: competition FACS vs biotinylated OST577-IgG1 on NS0 cells expressing rhesus FcRn, FBB pH 6.0.
For the molecule B1, the IC50 is 8.86 µg/mL.
With B2, the IC50 came to 0.629 µg/mL.
B3: the IC50 was 2.97 µg/mL.
Regarding B4, the IC50 is 0.236 µg/mL.

The target is the same in the next assay. As to the kind of experiment: IC50 of wild-type / IC50 of this antibody, same assay. This is another data set of the same source.
Turning to B5, the “Relative Binding” value is 7.7 ratio.
Same read-out and setting: under B6 stands 27 ratio; under B7, 8.4 ratio; under B8, 3.6 ratio.

Another assay deals with T1, recombinant, GPI-linked human FcRn on …. Description: competition FACS vs biotinylated HuEP5C7-IgG2M3 on NS0 cells expressing human FcRn, FSB pH 6.0.
On to B9, for which the IC50 is 68.7 µg/mL.
Consider B10, for which the IC50 was 102 µg/mL.
The same measure, in the same setting: with B11 the figure was 19 µg/mL; with B12, 147 µg/mL; with B13, 13.3 µg/mL.
On the same count and under the same terms, with B14 the figure was 20.2 µg/mL.
Still for that read-out and setting: with B15 the figure was 12 µg/mL.
As for B16, the IC50 was 32 µg/mL.

The record behind these values is patent US20050276799A1 (PDL BIOPHARMA, published 2005).
